Data as given in patent US20160279215A1, “NOVEL PEPTIDES AND COMBINATION OF PEPTIDES FOR USE IN IMMUNOTHERAPY AGAINST VARIOUS TUMORS” (immatics biotechnologies GmbH, priority 2015, published 2016).

Biological target: T1, HLA-A*02:01 (human)
T1 construct: MHC monomers captured on streptavidin plates; the UV-sensitive peptide is cleaved and exchanged with the test peptide; also called peptide-receptive MHC molecules; MHC class I
Assay: UV ligand-exchange ELISA (anti-b2m); +++ = exchange yield >=50
Text: Candidate peptides for T cell based therapies according to the present invention were further tested for their MHC binding capacity (affinity). The individual peptide-MHC complexes were produced by UV-ligand exchange, where a UV-sensitive peptide is cleaved upon UV-irradiation, and exchanged with the peptide of interest as analyzed. Only peptide candidates that can effectively bind and stabilize the peptide-receptive MHC molecules prevent dissociation of the MHC complexes. To determine the yield of the exchange reaction, an ELISA was performed based on the detection of the light chain (β2m) of stabilized MHC complexes. The assay was performed as generally described in Rodenko et al. (Rodenko et al., 2006).
96 well MAXISorp plates (NUNC) were coated over night with 2 ug/ml streptavidin in PBS at room temperature, washed 4× and blocked for 1 h at 37° C. in 2% BSA containing blocking buffer. Refolded HLA-A*02:01/MLA-001 monomers served as standards, covering the range of 15-500 ng/ml. Peptide-MHC monomers of the UV-exchange reaction were diluted 100 fold in blocking buffer. Samples were incubated for 1 h at 37° C., washed four times, incubated with 2 ug/ml HRP conjugated anti-β2m for 1 h at 37° C., washed again and detected with TMB solution that is stopped with […]. Absorption was measured at 450 nm. […]

SLTGANITV
peptide exchange yield: 50 to 75%
